Experiments:
[1] = molecular target: T1, Gal4 AD-FAF1 WT, Q9UNN5; assay: yeast two-hybrid, quantitative liquid β-galactosidase assay; details: chain shown with the change; yeast strain L40; parent: est. 1500000; read off a plot
T1 chain: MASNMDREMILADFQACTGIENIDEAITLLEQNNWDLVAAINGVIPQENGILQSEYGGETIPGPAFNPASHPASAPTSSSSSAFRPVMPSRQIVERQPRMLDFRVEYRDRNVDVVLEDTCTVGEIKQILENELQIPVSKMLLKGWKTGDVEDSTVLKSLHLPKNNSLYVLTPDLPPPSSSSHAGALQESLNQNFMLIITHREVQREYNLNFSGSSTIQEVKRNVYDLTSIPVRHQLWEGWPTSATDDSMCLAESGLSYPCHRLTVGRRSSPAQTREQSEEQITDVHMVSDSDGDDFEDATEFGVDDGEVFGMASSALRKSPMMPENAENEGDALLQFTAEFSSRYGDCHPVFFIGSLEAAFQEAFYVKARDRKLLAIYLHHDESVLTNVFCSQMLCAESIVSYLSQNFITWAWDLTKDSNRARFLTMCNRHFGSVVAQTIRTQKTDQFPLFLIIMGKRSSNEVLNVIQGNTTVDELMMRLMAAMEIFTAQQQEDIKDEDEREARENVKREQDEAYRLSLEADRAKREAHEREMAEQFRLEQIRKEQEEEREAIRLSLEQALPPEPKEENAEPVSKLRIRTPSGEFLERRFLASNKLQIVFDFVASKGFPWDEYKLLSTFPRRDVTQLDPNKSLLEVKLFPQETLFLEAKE

[2] = molecular target: T2, Gal4 AD-mSin3A (full-length), Q60520; assay: as above; details: chain shown with the change; yeast strain L40; parent: est. 60000; read off a plot
T2 chain: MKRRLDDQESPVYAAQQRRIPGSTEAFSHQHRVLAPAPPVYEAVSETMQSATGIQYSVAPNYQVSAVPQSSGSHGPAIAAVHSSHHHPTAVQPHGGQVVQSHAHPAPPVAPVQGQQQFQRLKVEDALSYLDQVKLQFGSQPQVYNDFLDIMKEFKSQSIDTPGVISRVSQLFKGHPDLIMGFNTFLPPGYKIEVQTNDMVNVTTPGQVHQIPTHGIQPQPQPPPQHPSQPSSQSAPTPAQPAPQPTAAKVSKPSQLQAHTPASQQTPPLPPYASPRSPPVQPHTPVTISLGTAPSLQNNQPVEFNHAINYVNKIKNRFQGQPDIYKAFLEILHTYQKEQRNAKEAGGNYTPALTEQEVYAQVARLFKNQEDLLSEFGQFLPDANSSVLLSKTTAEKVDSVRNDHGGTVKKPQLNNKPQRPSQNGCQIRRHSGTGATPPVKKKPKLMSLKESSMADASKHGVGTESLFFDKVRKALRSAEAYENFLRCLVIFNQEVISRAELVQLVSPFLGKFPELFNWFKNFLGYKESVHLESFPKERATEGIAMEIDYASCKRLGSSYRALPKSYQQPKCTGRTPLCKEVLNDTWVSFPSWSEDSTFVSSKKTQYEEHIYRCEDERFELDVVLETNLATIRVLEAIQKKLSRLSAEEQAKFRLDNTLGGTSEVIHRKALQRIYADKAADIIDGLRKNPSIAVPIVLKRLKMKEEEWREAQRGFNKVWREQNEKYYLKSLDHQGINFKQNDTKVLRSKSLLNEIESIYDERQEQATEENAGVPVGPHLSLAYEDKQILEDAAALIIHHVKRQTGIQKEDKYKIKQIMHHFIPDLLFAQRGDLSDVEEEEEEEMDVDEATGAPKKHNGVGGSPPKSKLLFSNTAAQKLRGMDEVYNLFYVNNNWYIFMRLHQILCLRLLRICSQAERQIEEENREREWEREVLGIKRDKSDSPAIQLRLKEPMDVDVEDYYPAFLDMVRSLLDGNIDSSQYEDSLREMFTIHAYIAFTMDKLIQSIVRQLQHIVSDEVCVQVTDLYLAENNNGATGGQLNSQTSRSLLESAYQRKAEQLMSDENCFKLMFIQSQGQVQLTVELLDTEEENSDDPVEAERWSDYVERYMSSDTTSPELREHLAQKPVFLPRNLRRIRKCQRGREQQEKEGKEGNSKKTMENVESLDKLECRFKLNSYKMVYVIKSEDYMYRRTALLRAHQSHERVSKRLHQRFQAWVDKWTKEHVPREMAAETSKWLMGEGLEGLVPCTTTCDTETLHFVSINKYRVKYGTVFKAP

response [1]: 43000 | response [2]: 190000
B1: LexA-SAP130 C-terminal region (amino acids 760-1048) WT, Q9H0E3 K794A; K878A; K932A (protein)
chain: APPPSVTVGGSLSSVLGPPVPEIKVAEEVEPMDIMRPVSAVPPLATNTVSPSLALLANNLSMPTSDLPPGASPRKKPRKQQHVISTEEGDMMETNSTDDEKSTAKSLLVAAEKRKSPPKEYIDEEGVRYVPVRPRPPITLLRHYRNPWKAAYHHFQRYSDVRVAEEKKAMLQEIANQKGVSCRAQGWKVHLCAAQLLQLTNLEHDVYERLTNLQEGIIPKKKAATDDDLHRINELIQGNMQRCKLVMDQISEARDSMLKVLDHKDRVLKLLNKNGTVKKVSKLKRKEKV

From publication PMC10765799
